# Results: patent US20140134183A1 (CELL MEDICA SWITZERLAND, published 2014)
# Several values for one entry are separate records, joined by “and”; a condition that tells them apart may be missing. Equal values may be shown once.
# T1: IL-36ra (human, UniProt Q9UBH0 2-155)
# T1 construct: Bought protein
# T1 sequence (looked up): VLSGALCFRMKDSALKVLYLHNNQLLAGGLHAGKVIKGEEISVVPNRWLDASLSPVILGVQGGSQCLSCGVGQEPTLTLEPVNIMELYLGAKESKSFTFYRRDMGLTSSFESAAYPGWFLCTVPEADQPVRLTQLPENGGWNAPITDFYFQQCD
# T2: rhIL-1 alpha (human, UniProt P01583 113-271)
# T2 construct: Bought protein
# T2 sequence (looked up): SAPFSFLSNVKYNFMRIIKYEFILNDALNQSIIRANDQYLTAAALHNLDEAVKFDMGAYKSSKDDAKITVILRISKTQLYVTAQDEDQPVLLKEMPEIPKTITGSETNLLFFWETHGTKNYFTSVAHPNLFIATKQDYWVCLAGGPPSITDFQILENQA
# T3: rhIL-33 (human, UniProt O95760 112-270)
# T3 construct: Bought protein
# T3 sequence (looked up): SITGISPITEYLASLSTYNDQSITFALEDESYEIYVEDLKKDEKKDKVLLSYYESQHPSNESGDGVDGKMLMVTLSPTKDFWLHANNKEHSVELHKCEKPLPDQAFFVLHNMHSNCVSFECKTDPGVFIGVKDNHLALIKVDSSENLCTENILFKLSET
# T4: guinea pig IL-1 beta (guinea pig, UniProt Q9WVG1 115-266)
# T4 construct: Bought protein
# T4 sequence: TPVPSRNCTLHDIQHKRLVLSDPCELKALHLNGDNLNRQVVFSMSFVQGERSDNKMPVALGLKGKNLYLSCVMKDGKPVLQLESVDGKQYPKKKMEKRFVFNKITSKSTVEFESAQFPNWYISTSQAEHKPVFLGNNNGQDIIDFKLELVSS
# T5: swine IL-1 beta (swine, UniProt P26889 115-267, limits assumed)
# T5 construct: Bought protein; also called porcine IL-1 beta
# T5 sequence (looked up): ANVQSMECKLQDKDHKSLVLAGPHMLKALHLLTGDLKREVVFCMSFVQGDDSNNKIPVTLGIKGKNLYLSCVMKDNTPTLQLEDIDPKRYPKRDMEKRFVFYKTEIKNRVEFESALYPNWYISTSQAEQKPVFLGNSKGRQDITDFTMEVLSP
# T6: canine IL-1 beta (canine, UniProt Q28292 115-266, limits assumed)
# T6 construct: Bought protein
# T6 sequence (looked up): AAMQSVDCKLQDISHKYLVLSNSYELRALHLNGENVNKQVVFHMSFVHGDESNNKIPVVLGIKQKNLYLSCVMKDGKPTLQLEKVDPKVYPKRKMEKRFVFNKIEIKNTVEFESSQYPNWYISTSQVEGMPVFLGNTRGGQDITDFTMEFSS
# B1: DLX2323 (scFv)
# scFv: EIVMTQSPSTLSASVGDRVIITCQASQSIDNWLSWYQQKPGKAPKLLIYRASTLASGVPSRFSGSGSGAEFTLTISSLQPDDFATYYCQNTGGGVSIAFGQGTKLTVLGGGGGSGGGGSGGGGSGGGGSEVQLVESGGGLVQPGGSLRLSCTASGFSLSSAAMAWVRQAPGKGLEWVGIIYDSASTYYASWAKGRFTISRDTSKNTVYLQMNSLRAEDTAVYYCARERAIFSGDFVLWGQGTLVTVSS
# notes: also called scFv DLX2323; parental scFv
# Columns and labels:
# cynomolgus IL-1 beta = target: T7, cynomolgus IL-1 beta (cynomolgus, UniProt P79182 117-268); test: ELISA, IL-1 beta coated at 2 mcg/ml, DLX2323 0.1 to 1.0 mcg/ml, Protein L-HRP detection
# T7 construct: Bought protein
# Text: (§1) Binding to the recombinantly expressed IL-1 beta proteins of the following species was investigated: cynomolgus (Sino Biological Inc., USA, cat. no. 90010-CNAE), rhesus macaque (R&D Systems, USA, cat. no. 1318-RL/CF), swine (Kingfisher Biotech, USA, cat. no. RP0297S-025), canine (Kingfisher Biotech, USA, cat. no. RP0085D-025), guinea pig (Kingfisher Biotech, cat. no. RP0343GP-025), rat (Peprotech, cat. no. 400-01B) and mouse (BioLegend, cat. no. 575102). […] Briefly, proteins were coated at a concentration of 2 mcg/ml over night at 4° C. on Maxisorp 96-well microplates in PBS. […] The ELISA was developed with BM Blue POD substrate (Roche Applied Science) and the absorbance was measured at 450 nm.
# rhesus macaque IL-1 beta = target: T8, rhesus macaque IL-1 beta (rhesus macaque, UniProt P48090 117-269); test: as above
# T8 construct: Bought protein; also called rhesus monkey IL-1 beta
# Text: as §1
# rat IL-1 beta = target: T9, rat IL-1 beta (rat, UniProt Q63264 117-268); test: as above
# T9 construct: Bought protein
# Text: as §1
# rhIL-18 = target: T10, rhIL-18 (human, UniProt Q14116 37-193); test: ELISA, cytokine coated, carried out essentially as for the species orthologs
# T10 construct: Bought protein
# Experimental: (§2) Briefly, proteins were coated at a concentration of 2 mcg/ml over night at 4° C. on Maxisorp 96-well microplates in PBS. […] The ELISA was developed with BM Blue POD substrate (Roche Applied Science) and the absorbance was measured at 450 nm.
# (§3) In the applied ELISA assay the following antibodies served as positive controls: biotin anti-human IL-1ra (BioLegend, cat. no. 509501), biotin anti-human IL-1 alpha (BioLegend, cat. no. 515703), anti-human IL-18 polyclonal antibody (BioVision, cat. no. 5179-100), biotin anti-human IL-33 antibody (Peprotech, cat. no. 500-P261Bt), anti-human TNF alpha scFv DLX105 (Delenex propriety antibody described in WO 2006/131013 A), biotin anti-human IL-6 (R&D systems, DY206, cat. no. 840114), anti-human IL-36ra (R&D systems, cat. no. AF1275). The ELISA was carried out essentially as described above.
# rhIL-1ra = target: T11, rhIL-1ra (human, UniProt P18510 26-177); test: as above
# T11 construct: Bought protein; also called rhIL-1 receptor antagonist; IL-1 beta receptor antagonist
# Experimental: as §2, §3
# IL-36ra = target: T1, IL-36ra; test: as above
# Experimental: as §2, §3
# rhIL-1 alpha = target: T2, rhIL-1 alpha; test: as above
# Experimental: as §2, §3
# rhTNF alpha = target: T12, rhTNF alpha (human, UniProt P01375 77-233); test: as above
# T12 construct: Bought protein
# Experimental: as §2, §3
# rhIL-6 = target: T13, rhIL-6 (human, UniProt P05231 30-212); test: as above
# T13 construct: Bought protein
# Experimental: as §2, §3
# rhIL-33 = target: T3, rhIL-33; test: as above
# Experimental: as §2, §3
# guinea pig IL-1 beta = target: T4, guinea pig IL-1 beta; test: ELISA, IL-1 beta coated at 2 mcg/ml, Protein L-HRP detection
# Text: as §1
# swine IL-1 beta = target: T5, swine IL-1 beta; test: as above
# Text: as §1
# mouse IL-1 beta = target: T14, mouse IL-1 beta (mouse, UniProt P10749 118-269); test: as above
# T14 construct: Bought protein
# Text: as §1
# canine IL-1 beta = target: T6, canine IL-1 beta; test: as above
# Text: as §1
# [1] = target: recombinant human IL-1 beta (human, UniProt P01584 117-269); test: cell-based or functional assay
# T14 sequence (P10749 118-269 limits assumed): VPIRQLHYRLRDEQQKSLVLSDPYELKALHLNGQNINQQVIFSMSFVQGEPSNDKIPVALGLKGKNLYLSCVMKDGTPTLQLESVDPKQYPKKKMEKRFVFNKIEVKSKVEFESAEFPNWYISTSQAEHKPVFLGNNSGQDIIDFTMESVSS
# T9 sequence (Q63264 117-268 limits assumed): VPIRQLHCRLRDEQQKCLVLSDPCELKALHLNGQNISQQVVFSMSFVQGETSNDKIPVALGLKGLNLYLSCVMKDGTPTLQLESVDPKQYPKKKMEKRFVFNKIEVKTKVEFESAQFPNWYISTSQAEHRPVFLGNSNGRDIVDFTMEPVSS
# T13 sequence (P05231 30-212 limits assumed): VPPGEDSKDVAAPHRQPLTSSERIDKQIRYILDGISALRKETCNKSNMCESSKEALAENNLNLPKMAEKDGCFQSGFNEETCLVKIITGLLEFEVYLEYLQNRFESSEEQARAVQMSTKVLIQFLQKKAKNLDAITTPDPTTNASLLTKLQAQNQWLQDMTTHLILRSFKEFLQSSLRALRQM
# T8 sequence (P48090 117-269 limits assumed): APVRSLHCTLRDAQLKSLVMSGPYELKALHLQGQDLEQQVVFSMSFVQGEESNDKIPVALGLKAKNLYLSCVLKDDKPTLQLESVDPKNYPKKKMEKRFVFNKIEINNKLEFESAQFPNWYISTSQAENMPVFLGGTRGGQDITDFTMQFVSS
# T11 sequence (P18510 26-177): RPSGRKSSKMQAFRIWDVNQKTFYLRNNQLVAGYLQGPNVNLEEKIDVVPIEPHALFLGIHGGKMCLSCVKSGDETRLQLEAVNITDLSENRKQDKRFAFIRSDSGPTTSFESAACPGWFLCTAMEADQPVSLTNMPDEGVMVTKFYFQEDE
# T12 sequence (P01375 77-233): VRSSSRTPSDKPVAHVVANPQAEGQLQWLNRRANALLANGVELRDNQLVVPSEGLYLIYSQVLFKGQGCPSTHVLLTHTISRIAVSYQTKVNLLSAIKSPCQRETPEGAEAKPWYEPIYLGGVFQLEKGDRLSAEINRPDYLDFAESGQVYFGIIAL
# T7 sequence (P79182 117-268 limits assumed): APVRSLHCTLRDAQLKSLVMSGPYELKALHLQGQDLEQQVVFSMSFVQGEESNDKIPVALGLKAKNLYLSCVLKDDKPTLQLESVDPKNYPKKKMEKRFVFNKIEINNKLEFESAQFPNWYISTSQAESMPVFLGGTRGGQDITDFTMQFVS
binder,measurement,setting,value
B1,binding result,cynomolgus IL-1 beta,binds
same,binding result,rhesus macaque IL-1 beta,binds
same,binding result,rat IL-1 beta,binds
same,binding result,rhIL-18,no binding
same,binding result,rhIL-1ra,no binding
same,binding result,IL-36ra,no binding
same,binding result,rhIL-1 alpha,no binding
same,binding result,rhTNF alpha,no binding
same,binding result,rhIL-6,no binding
same,binding result,rhIL-33,no binding
same,binding result,guinea pig IL-1 beta,no binding (tested: 1.0 mcg/ml)
same,binding result,swine IL-1 beta,no binding (tested: 1.0 mcg/ml)
same,binding result,mouse IL-1 beta,no binding (tested: 1.0 mcg/ml)
same,binding result,canine IL-1 beta,no binding (tested: 1.0 mcg/ml)
same,IC50 of IL-1 beta-induced IL-6 release from human dermal fibroblasts,[1],3 pM and 0.002 nM to 0.004 nM (2×)
